Laboratory results from US20220380475A1 (SORRISO PHARMACEUTICALS, published 2022).
Like-named read-outs stand apart in the source and are kept apart here.

Legend:
[1] = molecular target: T1, membrane-bound human IL-6R on TF-1 cells (human, UniProt P08887 20-468); experiment: cell-based or functional assay
T1 sequence: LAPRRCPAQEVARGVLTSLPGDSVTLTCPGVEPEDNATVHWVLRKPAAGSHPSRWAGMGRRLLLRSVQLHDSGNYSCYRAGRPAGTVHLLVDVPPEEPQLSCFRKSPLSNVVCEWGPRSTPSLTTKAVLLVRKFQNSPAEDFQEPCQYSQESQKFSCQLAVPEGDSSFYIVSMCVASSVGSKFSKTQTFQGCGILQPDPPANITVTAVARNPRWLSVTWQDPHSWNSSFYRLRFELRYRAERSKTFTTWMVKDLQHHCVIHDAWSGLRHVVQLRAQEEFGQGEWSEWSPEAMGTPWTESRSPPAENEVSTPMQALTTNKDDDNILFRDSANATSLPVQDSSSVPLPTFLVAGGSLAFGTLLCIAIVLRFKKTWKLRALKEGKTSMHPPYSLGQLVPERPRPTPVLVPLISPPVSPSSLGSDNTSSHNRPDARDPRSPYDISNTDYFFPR

[2] = molecular target: cynomolgus monkey soluble IL-6R (from cynomolgus monkey serum) (cynomolgus monkey); experiment: ratio of gp130 ELISA IC50s on human and cynomolgus sIL-6R
[3] = molecular target: T2, recombinant soluble human IL-6R (human, UniProt P08887 20-365); experiment: gp130 ELISA (competition), parallel human arm: 10 ng/mL human IL-6R, 50 ng/mL human IL-6
T2 sequence: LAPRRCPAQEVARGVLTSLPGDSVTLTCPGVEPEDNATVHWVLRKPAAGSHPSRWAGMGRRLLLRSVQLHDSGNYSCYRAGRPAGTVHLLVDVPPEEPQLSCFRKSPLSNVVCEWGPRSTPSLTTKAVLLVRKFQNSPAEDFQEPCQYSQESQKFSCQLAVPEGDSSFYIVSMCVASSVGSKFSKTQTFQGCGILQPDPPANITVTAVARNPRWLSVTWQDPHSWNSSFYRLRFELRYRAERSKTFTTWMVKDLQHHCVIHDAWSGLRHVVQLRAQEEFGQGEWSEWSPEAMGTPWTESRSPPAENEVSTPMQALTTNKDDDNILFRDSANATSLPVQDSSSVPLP
Experimental: (§1) The standard anti-cynomolgus monkey IL-6R gp130 ELISA assay detailed under ‘Potency, neutralisation and inhibition’ above was performed to assay the ICVDs in parallel for their ability to neutralise sIL6R in cynomolgous monkey serum and recombinant purified human sIL6R. Briefly, Maxisorp 96-well plates were coated overnight with 50 μl/well 1 μg/ml gp130 then blocked. ICVDs were serially diluted and mixed 1:1 with 200 ng/ml recombinant human IL-6, then 1:1 with either 20 ng/ml recombinant human sIL-6R or a 5-fold dilution of cynomolgus monkey serum and incubated for 1 hour to allow binding before adding to the gp130-coated plates. Bound cynomolgus monkey IL-6R was detected with 50 μl/well either 0.25 μg/ml (for human IL-6R) or 0.5 μg/ml (for monkey serum) BAF227 and then 50 μl/well 1/1000 Extravidin-HRP and the level of neutralisation by the ICVD of IL-6R binding to IL-6/gp130 was determined

[4] = molecular target: cynomolgus monkey soluble IL-6R (from cynomolgus monkey serum) (cynomolgus monkey); experiment: anti-cynomolgus IL-6R gp130 ELISA (competition): 10x diluted cynomolgus serum, 50 ng/mL human IL-6, coated human gp130
[5] = molecular target: T1, membrane-bound human IL-6R on TF-1 cells; experiment: cell-based or functional assay; remark: listed apart in the source
[6] = molecular target: T1, membrane-bound human IL-6R on TF-1 cells; experiment: cell-based or functional assay; remark: listed apart in the source
[7] = molecular target: T2, recombinant soluble human IL-6R; experiment: standard gp130 ELISA (competition); column 'Potency'
[8] = molecular target: T3, cynomolgus monkey soluble IL-6R (from cynomolgus monkey serum) (cynomolgus monkey, UniProt P08887 20-365 (human entry)); experiment: ratio of gp130 ELISA IC50s on human and cynomolgus sIL-6R
T3 construct: Natural soluble IL-6R present in diluted normal cynomolgus monkey serum; also called cyno IL6R; cynomolgous sIL-6R
T3 chain: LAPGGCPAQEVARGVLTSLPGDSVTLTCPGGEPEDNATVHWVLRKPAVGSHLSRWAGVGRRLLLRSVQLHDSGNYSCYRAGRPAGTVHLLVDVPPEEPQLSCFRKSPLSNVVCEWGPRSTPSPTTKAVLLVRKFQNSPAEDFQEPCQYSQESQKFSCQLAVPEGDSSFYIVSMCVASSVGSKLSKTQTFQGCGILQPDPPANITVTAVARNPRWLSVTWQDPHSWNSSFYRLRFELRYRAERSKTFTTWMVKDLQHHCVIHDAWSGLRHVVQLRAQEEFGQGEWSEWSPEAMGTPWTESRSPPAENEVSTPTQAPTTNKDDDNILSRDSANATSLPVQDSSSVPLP
Experimental: as §1

[9] = molecular target: T2, recombinant soluble human IL-6R; experiment: gp130 ELISA (competition), second assay, 10 min pre-incubation; 20 ng/mL IL6R, 100 ng/mL IL6
Experimental: (§2) Briefly, Maxisorp 96-well plates were coated overnight with 50 μl/well 0.5 μg/ml gp130 then blocked. ICVDs were serially diluted and mixed 1:1 with 100 ng/ml recombinant human IL-6 then 1:1 with 40 ng/ml recombinant human sIL-6R, and incubated for 1 hour to allow binding before adding to the gp130-coated plates. Bound IL-6R was detected with 50 μl/well 0.250 μg/ml BAF227 and then 50 μl/well 1/1000 diluted Extravidin-HRP and the level of neutralisation by the ICVD of IL-6R binding to IL-6/gp130 was determined.
(§3) A separate assay was performed on 21E6 and 7F6 using the same protocol as above with the exception that the ICVD/IL-6R/IL-6 where only incubated with shaking for 10 min before being added to the assay plates.

[10] = molecular target: T3, cynomolgus monkey soluble IL-6R (from …); experiment: anti-cynomolgus IL-6R gp130 ELISA (competition): 10x diluted cynomolgus serum, 50 ng/mL human IL-6, coated human gp130
Experimental: as §1

[11] = molecular target: T2, recombinant soluble human IL-6R; experiment: gp130 ELISA (competition): inhibition of human sIL-6R/IL-6 complex binding to coated gp130; 20 ng/mL IL6R, 100 ng/mL IL6
Experimental: as §2
Dose response curves were obtained (dose response curves of particular ICVDs illustrated in FIG. 1). […] This was confirmed with curve-fitting software (Graphpad Prism), which fitted 4 parameter curves to the data and calculated the IC50s (Table 4.1, below).

[12] = molecular target: T2, recombinant soluble human IL-6R; experiment: gp130 ELISA (competition), second assay; reference 7F6
Experimental: as §2, §3

[13] = molecular target: membrane-bound human IL-6R on TF-1 cells (human) (UniProt P08887); experiment: cell-based or functional assay
[14] = molecular target: recombinant soluble human IL-6R (human) (UniProt P08887); experiment: cell-based or functional assay
[15] = molecular target: membrane-bound human IL-6R on TF-1 cells (human) (UniProt P08887); experiment: cell-based or functional assay; remark: listed apart in the source
[16] = molecular target: recombinant soluble human IL-6R (human) (UniProt P08887); experiment: Biacore (SPR): binder fixed to the sensor, soluble human IL-6R flowed over
[17] = molecular target: recombinant soluble human IL-6R (human) (UniProt P08887); experiment: standard gp130 ELISA (competition), Experiment 2; 10 ng/mL IL-6R, 50 ng/mL IL-6
[18] = molecular target: recombinant soluble human IL-6R (human) (UniProt P08887); experiment: gp130 ELISA (competition): inhibition of human sIL-6R/IL-6 complex binding to coated gp130; 20 ng/mL IL6R, 100 ng/mL IL6
[19] = molecular target: T2, recombinant soluble human IL-6R; experiment: standard gp130 ELISA (competition)
[20] = molecular target: T1, membrane-bound human IL-6R on TF-1 cells; experiment: cell-based or functional assay; remark: listed apart in the source
[21] = molecular target: T2, recombinant soluble human IL-6R; experiment: cell-based or functional assay
[22] = molecular target: T2, recombinant soluble human IL-6R; experiment: Biacore (SPR): ICVD fixed to the sensor, soluble human IL-6R flowed over
From the text: The binding kinetics of the trans-selective ID-123V (E. coli produced version of ID-142V) and the cis/trans potent ID-112V (E. coli produced version of ID-144V, but for ID-112V lacking N82Y relative to ID-144V) were compared against tocilizumab in a Biacore study. The ICVDs were fixed to the Biacore sensor plate and soluble human IL-6R was flowed over the plate to detect binding.

[23] = molecular target: T2, recombinant soluble human IL-6R; experiment: standard gp130 ELISA (competition), Experiment 1; 10 ng/mL IL-6R, 50 ng/mL IL-6
Experimental: (§4) The inhibitory potency and efficacy (maximal inhibition) of the E. coli-produced 5G9 derivatives were confirmed in vitro in the gp130 ELISA, TF-1 cell and M1 cell functional assays measuring responses mediated via human IL-6R. The gp130 assays follow the standard protocol with a final assay concentration of 10 ng/mL IL-6R and 50 ng/mL IL-6.

[24] = molecular target: T1, membrane-bound human IL-6R on TF-1 cells; experiment: cell-based or functional assay; remark: listed apart in the source
[25] = molecular target: T2, recombinant soluble human IL-6R; experiment: standard gp130 ELISA (competition), Experiment 2; 10 ng/mL IL-6R, 50 ng/mL IL-6
Experimental: as §4

[26] = molecular target: T1, membrane-bound human IL-6R on TF-1 cells; experiment: cell-based or functional assay; remark: listed apart in the source

tocilizumab Fab
IC50 of inhibition of IL-6-induced TF-1 cell proliferation [1]: 15.9 nM | Ratio of human IC50 to cynomolgus IC50 [2]: 0.6 | IC50 [3]: 0.704 nM | IC50 [4]: 1.13 nM

B1: 7F6 (VHH)
VHH: EVQLVESGGGLVQAGGSTRLTCLASGSISSINVIGWYRQAPGKQRELVAMIGRGEGANYGDFAKGRFTISRDNSKNTVYLQMNSLKPEDTAVYYCYADYEDRDSPFNGSWGQGTQVTVSS
notes: also called VIL-7F6; 'Wild type' 7F6; not shown: C-terminal Flag and 6xHis tags from vector pMEK222
IC50 of inhibition of IL-6-induced TF-1 cell proliferation [5]: 0.5 nM | IC50 in TF1 assay (separate assay, raised background) [6]: 3 nM | IC50 [7]: 0.15 nM | Ratio Cyno IC50/human IC50 (title: human IC50 divided by cynomolgous IC50) [8]: 1.2 | IC50 [3]: 0.424 nM | IC50 [9]: 0.16 nM | IC50 [10]: 0.342 nM | IC50 [11]: 0.11 nM

B2: 21E6 (VHH)
VHH: EVQLVESGGGLVLAGGSTRLTCLASGSISSINVIGWYRQAPGKQRELVAMIGRGEGANYGDFAKGRFTISRDNSKNTVYLQMNSLKPEDTAVYYCYADYEDRDSPLNGSWGQGTQVTVSS
notes: Family-expansion clone related to 7F6 (Q13L and F106L); Expressed from a phagemid vector and purified
IC50 in TF1 assay (separate assay, raised background) [6]: 11 nM | fold less potent than 7F6 [12]: ~2 fold | IC50 [9]: 0.3 nM

B3: tocilizumab (antibody, part only; not given: constant regions, V domains shown, not shown: another chain or arm of the molecule)
VH: QVQLQESGPGLVRPSQTLSLTCTVSGYSITSDHAWSWVRQPPGRGLEWIGYISYSGITTYNPSLKSRVTMLRDTSKNQFSLRLSSVTAADTAVYYCARSLARTTAMDYWGQGSLVTVSS
VL: DIQMTQSPSSLSASVGDRVTITCRASQDISSYLNWYQQKPGKAPKLLIYYTSRLHSGVPSRFSGSGSGTDFTFTISSLQPEDIATYYCQQGNTLPYTFGQGTKVEIK
TF-1 cell assay EC50 (5 ng/ml IL-6) [13]: 0.69 nM | Potency in the TF-1 assay ([13]; scale: not given): 0.69 | M1 cellular assay EC50 (20 ng/ml IL-6R, 100 ng/ml IL-6) [14]: 5.36 nM | TF-1 cell assay EC50 (5 ng/ml IL-6) [15]: 1.12 nM | Kd [16]: 0.39 nM | EC50 [17]: 1.83 nM | IC50 [18]: 0.97 nM

B4: ID-75V (VHH)
VHH: DVQLVESGGGLVQAGGSTRLTCKASGSISNINSINVMAWYRQAPGKQRELVAIIGKGGGTNYADFVKGRFTISRDAAKNTVNLQMNSLKPEDTAVYYCYADYEDHDSPFNASWGQGTQVTVSS
notes: also called 5G9 + E1D, F29S, R105H
binding result [19]: binds

B5: ID-112V (VHH)
VHH: EVQLVESGGGLVQAGGSTRLTCKASGSISNINSINVMAWYRQAPGKGRELVAIIGKGGGTNYADFVKGRFTISRDAAKNTVNLQMNSLRPEDTAVYYCYADYEDHDSPFNASWGQGTQVTVSS
notes: E. coli-produced cis/trans potent 5G9 derivative; also called 5G9 + F29S, Q47G, K89R, R105H; not shown: C-terminal FLAG-6xHis
TF-1 cell assay EC50 (5 ng/ml IL-6) [20]: 0.18 nM | M1 cellular assay EC50 (20 ng/ml IL-6R, 100 ng/ml IL-6) [21]: 0.55 nM | Kd [22]: 0.04 nM | EC50 [23]: 0.15 nM

B6: ID-123V (VHH)
VHH: EVQLVESGGGLVQAGGSTRLTCKASGSISNINSINVMAWYRQAPGKGRELVAIIGKGGGTNYADFVKGRFTISRDAAKNTVYLQMNSLRPEDTAVYYCYADYEDHDSPHNASWGQGTQVTVSS
notes: E. coli-produced trans-selective 5G9 derivative; E. coli version of ID-142V (lacks E1D); also called 5G9 + F29S, Q47G, N82Y, K89R, R105H, F109H; not shown: C-terminal FLAG-6xHis
TF-1 cell assay EC50 (5 ng/ml IL-6) [24]: 4.5 nM | M1 cellular assay EC50 (20 ng/ml IL-6R, 100 ng/ml IL-6) [21]: 4.2 nM | Kd [22]: 1.1 nM | EC50 [25]: 0.498 nM

B7: ID-114V (VHH)
VHH: EVQLVESGGGLVQAGGSTRLTCKASGSISNINSINVMAWYRQAPGKQRELVAIIGKGGGTNYADFVKGRFTISRDAAKNTLYLQMNSLKPEDTAVYYCYADYEDHDSPFNASWGQGTQVTVSS
notes: E. coli-produced cis/trans potent 5G9 derivative; also called 5G9 + F29S, V81L, N82Y, R105H; not shown: C-terminal FLAG-6xHis
TF-1 cell assay EC50 (5 ng/ml IL-6) [26]: 0.29 nM | M1 cellular assay EC50 (20 ng/ml IL-6R, 100 ng/ml IL-6) [21]: 0.52 nM | EC50 [23]: 0.138 nM
